Measured values as given in patent publication US20030068675, “Position dependent recognition of GNN nucleotide triplets by zinc fingers” (published 2003).

Key:
Test in all cases: EMSA
Details in all cases: tags: MBP fusion
ZFP SBS#567 = biological target: T1, ZFP SBS#567 (synthetic)
T1 chain: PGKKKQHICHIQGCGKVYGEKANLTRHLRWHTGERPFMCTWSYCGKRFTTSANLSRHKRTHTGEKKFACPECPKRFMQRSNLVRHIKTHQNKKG
Outline: (§1)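 Purified ZFP was titrated against labeled double-stranded target (1 nM or lower, at least 10-fold below expected Kd) carrying the natural binding site with flanks. Binding buffer was 10 mM Tris pH 7.5, 100 mM KCl, 1 mM MgCl2, 0.1 mM ZnCl2, 5 mM DTT, 10% glycerol, 0.02% BSA, with equilibration for at least 45 min. Bound and free target were separated on a 10% polyacrylamide gel.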

ZFP SBS#429 = ZFP SBS#429 (synthetic)
Outline: as §1

ZFP SBS#428 = ZFP SBS#428 (synthetic)
Outline: as §1

ZFP SBS#568 = biological target: T2, ZFP SBS#568 (synthetic)
T2 chain: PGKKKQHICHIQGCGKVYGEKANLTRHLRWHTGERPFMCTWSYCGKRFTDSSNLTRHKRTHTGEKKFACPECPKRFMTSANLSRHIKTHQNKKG
Outline: as §1

ZFP SBS#430 = biological target: T3, ZFP SBS#430 (synthetic)
T3 chain: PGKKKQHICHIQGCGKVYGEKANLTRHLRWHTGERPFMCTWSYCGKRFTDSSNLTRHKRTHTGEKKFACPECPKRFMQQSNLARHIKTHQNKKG
Outline: as §1

ZFP SBS#704 = ZFP SBS#704 (synthetic)
Outline: as §1

ZFP SBS#740 = biological target: T4, ZFP SBS#740 (synthetic)
T4 chain: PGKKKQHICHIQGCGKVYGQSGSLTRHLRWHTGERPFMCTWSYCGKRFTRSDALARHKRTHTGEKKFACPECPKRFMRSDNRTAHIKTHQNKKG
Outline: as §1

ZFP SBS#607 = ZFP SBS#607 (synthetic)
Outline: as §1

ZFP SBS#728 = biological target: T5, ZFP SBS#728 (synthetic)
T5 chain: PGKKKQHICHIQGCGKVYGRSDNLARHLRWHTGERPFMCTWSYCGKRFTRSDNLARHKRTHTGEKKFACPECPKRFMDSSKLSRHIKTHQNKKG
Outline: as §1

ZFP SBS#713 = biological target: T6, ZFP SBS#713 (synthetic)
T6 chain: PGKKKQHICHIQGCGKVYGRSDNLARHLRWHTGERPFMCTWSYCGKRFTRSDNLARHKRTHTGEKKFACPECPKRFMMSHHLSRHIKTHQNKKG
Outline: as §1

ZFP SBS#751 = ZFP SBS#751 (synthetic)
Outline: as §1

ZFP SBS#712 = biological target: T7, ZFP SBS#712 (synthetic)
T7 chain: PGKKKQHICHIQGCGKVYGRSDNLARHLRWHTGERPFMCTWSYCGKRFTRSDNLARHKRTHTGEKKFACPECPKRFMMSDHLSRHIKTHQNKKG
Outline: as §1

ZFP SBS#735 = biological target: T8, ZFP SBS#735 (synthetic)
T8 chain: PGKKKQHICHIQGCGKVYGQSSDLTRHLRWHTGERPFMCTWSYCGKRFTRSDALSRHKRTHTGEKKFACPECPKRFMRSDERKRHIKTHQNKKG
Outline: as §1

ZFP SBS#727 = ZFP SBS#727 (synthetic, UniProt P08047)
Outline: as §1

ZFP SBS#762 = ZFP SBS#762 (synthetic, UniProt P08047)
Outline: as §1

ZFP SBS#761 = biological target: T9, ZFP SBS#761 (synthetic)
T9 chain: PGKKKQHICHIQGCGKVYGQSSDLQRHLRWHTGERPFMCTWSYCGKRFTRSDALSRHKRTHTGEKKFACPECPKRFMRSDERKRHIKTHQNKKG
Outline: as §1

ZFP SBS#732 = ZFP SBS#732 (synthetic)
Outline: as §1

ZFP SBS#733 = ZFP SBS#733 (synthetic)
Outline: as §1

ZFP SBS#734 = ZFP SBS#734 (synthetic)
Outline: as §1

ZFP SBS#736 = biological target: T10, ZFP SBS#736 (synthetic, UniProt P08047)
T10 chain: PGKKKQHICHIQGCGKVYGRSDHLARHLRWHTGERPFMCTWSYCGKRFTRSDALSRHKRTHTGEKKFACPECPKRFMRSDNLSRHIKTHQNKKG
Outline: as §1

ZFP SBS#752 = biological target: T11, ZFP SBS#752 (synthetic, UniProt P08047)
T11 chain: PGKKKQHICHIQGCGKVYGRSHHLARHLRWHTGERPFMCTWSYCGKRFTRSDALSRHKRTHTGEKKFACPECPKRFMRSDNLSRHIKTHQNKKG
Outline: as §1

ZFP SBS#741 = ZFP SBS#741 (synthetic)
Outline: as §1

ZFP SBS#742 = biological target: T12, ZFP SBS#742 (synthetic)
T12 chain: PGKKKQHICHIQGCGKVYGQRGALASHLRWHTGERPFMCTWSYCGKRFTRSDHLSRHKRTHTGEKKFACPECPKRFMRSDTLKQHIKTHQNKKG
Outline: as §1

ZFP SBS#744 = biological target: T13, ZFP SBS#744 (synthetic)
T13 chain: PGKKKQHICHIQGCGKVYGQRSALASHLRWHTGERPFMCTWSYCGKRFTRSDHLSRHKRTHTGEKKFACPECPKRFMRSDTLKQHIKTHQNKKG
Outline: as §1

ZFP SBS#745 = biological target: T14, ZFP SBS#745 (synthetic)
T14 chain: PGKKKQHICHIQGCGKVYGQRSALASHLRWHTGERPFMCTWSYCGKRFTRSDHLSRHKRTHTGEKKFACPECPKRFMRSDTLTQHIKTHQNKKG
Outline: as §1

ZFP SBS#743 = biological target: T15, ZFP SBS#743 (synthetic)
T15 chain: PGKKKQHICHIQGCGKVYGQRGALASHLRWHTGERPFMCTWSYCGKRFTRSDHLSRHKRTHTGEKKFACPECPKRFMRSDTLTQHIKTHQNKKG
Outline: as §1

ZFP SBS#746 = ZFP SBS#746 (synthetic)
Outline: as §1

ZFP SBS#747 = biological target: T16, ZFP SBS#747 (synthetic)
T16 chain: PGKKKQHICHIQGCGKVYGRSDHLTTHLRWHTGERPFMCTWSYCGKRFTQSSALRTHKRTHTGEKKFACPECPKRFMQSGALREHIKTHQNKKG
Outline: as §1

ZFP SBS#748 = biological target: T17, ZFP SBS#748 (synthetic)
T17 chain: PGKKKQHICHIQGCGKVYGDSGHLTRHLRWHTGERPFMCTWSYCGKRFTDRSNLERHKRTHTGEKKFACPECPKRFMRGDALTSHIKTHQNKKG
Outline: as §1

ZFP SBS#759 = biological target: T18, ZFP SBS#759 (synthetic)
T18 chain: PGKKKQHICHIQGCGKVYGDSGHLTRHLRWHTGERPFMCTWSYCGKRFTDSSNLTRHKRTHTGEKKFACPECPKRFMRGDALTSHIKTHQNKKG
Outline: as §1

ZFP SBS#760 = biological target: T19, ZFP SBS#760 (synthetic)
T19 chain: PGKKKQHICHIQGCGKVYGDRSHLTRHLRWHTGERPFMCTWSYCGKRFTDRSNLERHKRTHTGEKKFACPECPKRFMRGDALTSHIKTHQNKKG
Outline: as §1

ZFP SBS#749 = biological target: T20, ZFP SBS#749 (synthetic)
T20 chain: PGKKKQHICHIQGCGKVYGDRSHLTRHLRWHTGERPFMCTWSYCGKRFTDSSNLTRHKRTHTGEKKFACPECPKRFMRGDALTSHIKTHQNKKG
Outline: as §1

ZFP SBS#757 = biological target: T21, ZFP SBS#757 (synthetic, UniProt P08047)
T21 chain: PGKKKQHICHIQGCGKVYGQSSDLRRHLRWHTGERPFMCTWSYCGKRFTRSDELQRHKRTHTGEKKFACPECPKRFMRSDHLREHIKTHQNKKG
Outline: as §1

ZFP SBS#758 = biological target: T22, ZFP SBS#758 (synthetic, UniProt P08047)
T22 chain: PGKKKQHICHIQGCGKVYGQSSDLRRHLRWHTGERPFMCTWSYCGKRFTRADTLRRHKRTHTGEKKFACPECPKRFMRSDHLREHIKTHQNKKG
Outline: as §1

ZFP SBS#777 = biological target: T23, ZFP SBS#777 (synthetic)
T23 chain: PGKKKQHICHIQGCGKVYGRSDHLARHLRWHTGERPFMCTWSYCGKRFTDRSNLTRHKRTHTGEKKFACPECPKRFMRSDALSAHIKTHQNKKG
Outline: as §1

ZFP SBS#776 = biological target: T24, ZFP SBS#776 (synthetic)
T24 chain: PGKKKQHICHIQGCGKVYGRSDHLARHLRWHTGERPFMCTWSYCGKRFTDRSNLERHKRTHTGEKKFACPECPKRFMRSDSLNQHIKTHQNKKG
Outline: as §1

ZFP SBS#780 = ZFP SBS#780 (synthetic)
Outline: as §1

ZFP SBS#779 = ZFP SBS#779 (synthetic)
Outline: as §1

ZFP SBS#732 (synthetic), sequence (chain, as listed by the source): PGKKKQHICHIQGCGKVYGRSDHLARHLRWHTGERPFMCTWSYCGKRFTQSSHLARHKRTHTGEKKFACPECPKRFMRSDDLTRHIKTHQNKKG
ZFP SBS#429 (synthetic), sequence (chain, as listed by the source): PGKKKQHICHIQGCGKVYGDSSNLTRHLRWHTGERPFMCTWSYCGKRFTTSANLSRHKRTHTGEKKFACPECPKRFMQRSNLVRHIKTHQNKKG
ZFP SBS#762, sequence (P08047 other isoform, or with tags, fused parts or gaps): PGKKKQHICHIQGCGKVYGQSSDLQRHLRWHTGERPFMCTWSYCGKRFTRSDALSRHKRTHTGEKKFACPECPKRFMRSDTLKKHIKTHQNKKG
ZFP SBS#428 (synthetic), sequence (chain, as listed by the source): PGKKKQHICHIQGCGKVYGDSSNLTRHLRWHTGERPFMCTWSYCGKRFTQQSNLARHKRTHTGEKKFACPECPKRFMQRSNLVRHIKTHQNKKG
ZFP SBS#751 (synthetic), sequence (chain, as listed by the source): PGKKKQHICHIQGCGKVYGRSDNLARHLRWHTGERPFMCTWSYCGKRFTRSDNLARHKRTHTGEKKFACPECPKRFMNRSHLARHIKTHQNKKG
ZFP SBS#780 (synthetic), sequence (chain, as listed by the source): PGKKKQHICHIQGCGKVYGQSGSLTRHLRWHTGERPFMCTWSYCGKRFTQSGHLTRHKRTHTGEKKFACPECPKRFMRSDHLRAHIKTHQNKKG
ZFP SBS#727, sequence (P08047 other isoform, or with tags, fused parts or gaps): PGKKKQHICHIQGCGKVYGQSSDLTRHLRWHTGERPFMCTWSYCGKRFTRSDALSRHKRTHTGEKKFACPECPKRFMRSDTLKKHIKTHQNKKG
ZFP SBS#704 (synthetic), sequence (chain, as listed by the source): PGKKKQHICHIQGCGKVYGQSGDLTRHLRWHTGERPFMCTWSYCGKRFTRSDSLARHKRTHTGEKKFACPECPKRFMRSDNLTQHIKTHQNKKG
ZFP SBS#741 (synthetic), sequence (chain, as listed by the source): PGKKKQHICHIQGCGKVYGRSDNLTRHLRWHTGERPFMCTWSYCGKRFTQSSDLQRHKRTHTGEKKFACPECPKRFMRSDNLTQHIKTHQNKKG
ZFP SBS#746 (synthetic), sequence (chain, as listed by the source): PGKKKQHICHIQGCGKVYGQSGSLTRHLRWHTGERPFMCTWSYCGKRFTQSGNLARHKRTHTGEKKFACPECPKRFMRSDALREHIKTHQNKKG
ZFP SBS#734 (synthetic), sequence (chain, as listed by the source): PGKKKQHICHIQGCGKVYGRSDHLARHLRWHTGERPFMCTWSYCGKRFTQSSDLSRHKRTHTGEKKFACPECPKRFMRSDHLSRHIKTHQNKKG

B1: GAAGATGAC (dsDNA)
DNA 1: GAAGATGAC
DNA 2: GTCATCTTC
- Kd (ZFP SBS#567): 47.5 nM
- Kd (ZFP SBS#429): 50 nM
- Kd (ZFP SBS#428): 120 nM

B2: GATGACGAC (dsDNA)
DNA 1: GATGACGAC
DNA 2: GTCGTCATC
- Kd (ZFP SBS#568): 300 nM
- Kd (ZFP SBS#430): 250 nM

B3: AAGGTGGCAG (dsDNA)
DNA 1: AAGGTGGCAG
DNA 2: CTGCCACCTT
- Kd (ZFP SBS#704): 5 nM
- Kd (ZFP SBS#740): 12.5 nM
- Kd (ZFP SBS#607): 6.5 nM

B4: GGTGAGGAGT (dsDNA)
DNA 1: GGTGAGGAGT
DNA 2: ACTCCTCACC
- Kd (ZFP SBS#728): 15 nM
- Kd (ZFP SBS#713): 0.15 nM
- Kd (ZFP SBS#751): 7 nM
- Kd (ZFP SBS#712): 9.5 nM

B5: GCGGTGGCTC (dsDNA)
DNA 1: GCGGTGGCTC
DNA 2: GAGCCACCGC
- Kd (ZFP SBS#735): 0.05 nM
- Kd (ZFP SBS#727): 0.1 nM
- Kd (ZFP SBS#762): 18 nM
- Kd (ZFP SBS#761): 6 nM

B6: GCGGGTGGGG (dsDNA)
DNA 1: GCGGGTGGGG
DNA 2: CCCCACCCGC
- Kd (ZFP SBS#732): 22.5 nM
- Kd (ZFP SBS#733): 0.32 nM

B7: GGGGCTGGGT (dsDNA)
DNA 1: GGGGCTGGGT
DNA 2: ACCCAGCCCC
- Kd (ZFP SBS#734): 0.25 nM

B8: GAGGTGGGGA (dsDNA)
DNA 1: GAGGTGGGGA
DNA 2: TCCCCACCTC
- Kd (ZFP SBS#736): 0.47 nM
- Kd (ZFP SBS#752): 31 nM

B9: AAGGCTGAGA (dsDNA)
DNA 1: AAGGCTGAGA
DNA 2: TCTCAGCCTT
- Kd (ZFP SBS#741): 15 nM

B10: ACGGGGTTAT (dsDNA)
DNA 1: ACGGGGTTAT
DNA 2: ATAACCCCGT
- Kd (ZFP SBS#742): 29 nM
- Kd (ZFP SBS#744): 8.33 nM
- Kd (ZFP SBS#745): 12.5 nM
- Kd (ZFP SBS#743): 10 nM

B11: CTGGAAGCAT (dsDNA)
DNA 1: CTGGAAGCAT
DNA 2: ATGCTTCCAG
- Kd (ZFP SBS#746): 2.07 nM

B12: CTATTTTGGG (dsDNA)
DNA 1: CTATTTTGGG
DNA 2: CCCAAAATAG
- Kd (ZFP SBS#747): 2000 nM

B13: TTGGACGGCG (dsDNA)
DNA 1: TTGGACGGCG
DNA 2: CGCCGTCCAA
- Kd (ZFP SBS#748): 112 nM
- Kd (ZFP SBS#759): 37 nM
- Kd (ZFP SBS#760): 148 nM
- Kd (ZFP SBS#749): 11.3 nM

B14: CGGGCGGCTG (dsDNA)
DNA 1: CGGGCGGCTG
DNA 2: CAGCCGCCCG
- Kd (ZFP SBS#757): 14.5 nM
- Kd (ZFP SBS#758): 16.5 nM

B15: ATGGACGGGT (dsDNA)
DNA 1: ATGGACGGGT
DNA 2: ACCCGTCCAT
- Kd (ZFP SBS#777): 3.4 nM
- Kd (ZFP SBS#776): 0.4 nM

B16: CGGGGAGCAG (dsDNA)
DNA 1: CGGGGAGCAG
DNA 2: CTGCTCCCCG
- Kd (ZFP SBS#780): 0.5 nM
- Kd (ZFP SBS#779): 0.5 nM
